In the supplement of paper PMC9170038:

System: MS2 coat protein
Assay: apparent KD of MS2 coat protein; designed switch direction (-1 OFF switch, 1 ON switch): -1; higher = weaker reporter binding
How it was run: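 SNAP-549-labelled MS2 coat protein was titrated, doubling from 0.7 or 1.5 nM to 3 µM, over designed RNA switches transcribed on Illumina chips by stalled E. coli RNA polymerase. Runs were done without input, with 200 uM small-molecule ligand, or with an oligonucleotide input. Apparent KD is the per-design median over clusters of curve-fitted normalised fluorescence.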

[1] = input ligand: microRNA oligo, concentration not stated
[2] = Eterna round: R95, input ligand: microRNA oligo, concentration not stated

Sequence	apparent KD of MS2 coat protein (input ligand: FMN 200 uM) [nM]	apparent KD of MS2 coat protein (input ligand: none) [nM]	apparent KD of MS2 coat protein [1] [nM]	further results
UUAUUAGCAGGAUAUAUCCAGGAUUACAUGAGGAUCACCCAUGUGGCCGCUUGAAAUUCUAUAGAAGGGCUUUAUU [Mod of ViennaUCT 36 - Jieux - Exclusion 5] (Eterna round: R97, puzzle: Exclusion 5)	52.7	45.8	–	–
UUAUUAUAUGUAGGAUAUGCAUAUUGUUGUUAUGCAGAAGGACAUGAGGAUCACCCAUGUGUAUUAUUGUUAUAUAUUAUAUAU [Title] (Eterna round: R96, puzzle: Exclusion NG 1)	–	–	16.5	–
UUAUUAUAUGUAGGAUAUGCGUAUUAUUGUUAUGCAGAAGGACAUGAGGAUCACCCAUGUAUAUUAUUGUUAUAUAUUGUAUAU [Title] (Eterna round: R96, puzzle: Exclusion NG 1)	28.9	21.7	19.8	–
UUAUUAUGUGUAGGAUAUGCAUAUUAUUAUUAUGCAGAAGGACAUGAGGAUCACCCAUGUAUAUUAUUAUUAUAUAUUAUAUAU [Title] (Eterna round: R96, puzzle: Exclusion NG 1)	–	–	25.1	–
UUAUUGCAAGCAAGAUCCCACAUGAGGAUCACCCAUGUGCUCGUCUUAUAAGGUACUGUGACGAAAGUCACGGUACC [Sensor 3, v1 - 99] (puzzle: Sensor v3, turn-off variant 1)	–	–	–	apparent KD of MS2 coat protein (Eterna round: R95, input ligand: FMN 200 uM): 26 nM; apparent KD of MS2 coat protein [2]: 462 nM; apparent KD of MS2 coat protein (Eterna round: R95, input ligand: none): 30.6 nM
UUCAUGUGAGGAUAUAGUACUCUUUCUAUUAUUUUUGAGUAUUAGAAGGCACAUGAGGAUCACCCAUGUAGUAC [Ex4 - 3 - 42] (puzzle: Exclusion 4)	–	–	–	apparent KD of MS2 coat protein [2]: 40.8 nM
UUCCAUUCAGGAUAUCGAUGGAAUCACAUGAGGAUCACCCAUGUGAUACCUAGGUGACCGCGAGAAGGGAAAGGGU [EX5 B.7] (Eterna round: R97, puzzle: Exclusion 5)	13.8	12.9	–	–
UUCCUACUUGAGGAUCACCCAAGUCAGGAUAUCCAUAGCCGACACUCUUUUCGGAACGGGAGAAGGGACUUGGU [Tiisatbi] (Eterna round: R97, puzzle: Exclusion 1)	97.5	37.2	–	–
UUCGUGCAGCUUUGCUGUACGCGUACAUGAGGAUCACCCAUGUAGGAUAUGGUACGCUUUGCGUGCUAGAAGGAUAUGUGGAGG [JL EXNG3 1.35] (Eterna round: R96, puzzle: Exclusion NG 3)	59.1	45.2	33.6	–
UUCGUGCUGCUUUGCUGUACGAGUACAUGAGGAUCACCCAUGUAGGAUAUGGUACGCUUUGCGUGCUAGAAGGAUAUGUGUAGC [salish99_ExNG3_r04_505] (Eterna round: R96, puzzle: Exclusion NG 3)	26.7	25.4	18.9	–
UUCUUGUGAGGAUAUCAGUAGUAAAUAAAUAAAAUUACUACUGAGAAGGCACAUGAGGAUCACCCAUGUUCCUU [salish99_ex3_r3_092] (puzzle: Exclusion 4)	–	–	–	apparent KD of MS2 coat protein [2]: 15 nM
UUCUUUAUACGAGGAUAUCAUACAUGAGGAUCACCCAUGUAACUGGGUCUAUUUUUAUAUAAUAUUGAGAAGGCGUUUUGCUAU [JR_ExcNG2_Sub071] (Eterna round: R96, puzzle: Exclusion NG 2)	52.6	36.8	31.1	–
UUCUUUAUACGAGGAUAUCAUACAUGAGGAUCACCCAUGUGGCUGGGUCUGUUUUUAUAUAAUAUUGAGAAGGCGUUUUUCUAU [JR_ExcNG2_Sub073] (Eterna round: R96, puzzle: Exclusion NG 2)	291	78.9	79.8	–
UUGAAGAUAGGAUAUACGAGGAGAGGAGAGAGAAGGUGAGGACAUGAGGAUCACCCAUGUAGAAGGAUCAGGAA [JR_Exclu2_Sub065] (puzzle: Exclusion 2)	–	–	–	apparent KD of MS2 coat protein [2]: 75.4 nM
UUGAAGUCAGGAUAUCGUUAAUUUAGUUGUUUGUAUUAGUUCGAGAAGGGACAUGAGGAUCACCCAUGUAAGUA [Ex4 #47] (Eterna round: R97, puzzle: Exclusion 4)	32.7	40.5	–	–
UUGGGCAGAGGAUAUCGUACGUAGCACAUGAGGAUCACCCAUGUGGCCAGCCGCUAAACAUGAGAAGGUUGUGUAC [Eternabot (Original) Solution 8] (Eterna round: R97, puzzle: Exclusion 5)	17.6	14.3	–	–
UUGUGCACGCUGCGAUCCUACAUGAGGAUCACCCAUGUGGUCUGGUGGCGUGGGUCACCGGACUUGGCUCGUCUUGA [salish99_S_TOV1_R5_068] (Eterna round: R97, puzzle: Sensor, turn-off variant 1)	118	129	–	–
UUGUGCACGCUGCGGUCCUACAUGAGGAUCACCCAUGUGGUCUGGUGGCGUGGGUCACCGGACUUGGCUCGUCUUGC [salish99_S_TOV1_R5_059] (Eterna round: R97, puzzle: Sensor, turn-off variant 1)	22.5	22.8	–	–
UUGUUAUAUGUAGGAUAUGCAUAUUAUUAUUAUGCAGAAGGACAUGAGGAUCACCCAUGUAUAUUGUUAUUAUAUAUUAUAUAU [Title] (Eterna round: R96, puzzle: Exclusion NG 1)	–	–	19	–
UUGUUAUAUGUAGGAUAUGCAUAUUAUUAUUAUGCAGAAGGACAUGAGGAUCACCCAUGUAUGUUGUUGUUAUAUAUUAUAUAU [Title] (Eterna round: R96, puzzle: Exclusion NG 1)	–	–	17.9	–
UUGUUAUAUGUAGGAUAUGCGUAUUAUUAUUAUGCAGAAGGACAUGAGGAUCACCCAUGUAUGUUGUUGUUAUAUAUUAUAUAU [Title] (Eterna round: R96, puzzle: Exclusion NG 1)	–	–	18.1	–
UUGUUAUAUGUAGGAUAUGCGUAUUGUUAUUAUGCAGAAGGACAUGAGGAUCACCCAUGUAUAUUAUUAUUAUAUAUUAUAUAU [Title] (Eterna round: R96, puzzle: Exclusion NG 1)	87.8	27.4	22.2	–
UUGUUCCGUGUAGGAUAUUGGUCUCCCUCGGGCCGAGAAGGACAUGAGGAUCACCCAUGUAUGCUAUUAUCGCGCGUGGCGCAU [Design 92] (Eterna round: R96, puzzle: Exclusion NG 1)	209	58.9	48.5	–
UUGUUGUAUGUAGGAUAUGCAUAUUGUUAUUAUGCAGAAGGACAUGAGGAUCACCCAUGUAUAUUAUUAUUAUAUGUUAUAUAU [Title] (Eterna round: R96, puzzle: Exclusion NG 1)	–	–	17.9	–
